We go through four molecules from article PMC1540706, “Role of the AP2 β-Appendage Hub in Recruiting Partners for Clathrin-Coated Vesicle Assembly” (PLoS Biology, 2006).

First the molecules themselves.
B1: human β2-appendage (700–937) used for ITC (domain or fragment, UniProt P63010 700-937, looked up)
chain: IGMAPGGYVAPKAVWLPAVKAKGLEISGTFTHRQGHIYMEMNFTNKALQHMTDFAIQFNKNSFGVIPSTPLAIHTPLMPNQSIDVSLPLNTLGPVMKMEPLNNLQVAVKNNIDVFYFSCLIPLNVLFVEDGKMERQVFLATWKDIPNENELQFQIKECHLNADTVSSKLQNNNVYTIAKRNVEGQDMLYQSLKLTNGIWILAELRIQPGNPNYTLSLKCRAPEVSQYIYQVYDSILKN
notes: AP2 β2-adaptin appendage domain, human, residues 700-937; also called wild-type β2-appendage; β-appendage
B2: 6× His human Eps15-MD (530–791) (domain or fragment, UniProt P42566 530-791, looked up)
chain: STSSSETANLNEHVEGQSNLESEPIHQESPARSSPELLPSGVTDENEVTTAVTEKVCSELDNNRHSKEEDPFNVDSSSLTGPVADTNLDFFQSDPFVGSDPFKDDPFGKIDPFGGDPFKGSDPFASDCFFRQSTDPFATSSTDPFSAANNSSITSVETLKHNDPFAPGGTVVAASDSATDPFASVFGNESFGGGFADFSTLSKVNNEDPFRSATSSSVSNVVITKNVFEETSVKSEDEPPALPPKIGTPTRPCPLPPGKRSI
notes: Eps15 motif domain, human, residues 530-791 (STSSSE…GKRSI); The His-tagged form is named for SPR; also called 6× His hEps15-MD; motif domain of Eps15; source: recombinant (pET28c), purified

Experiment in all cases: ITC; VP-ITC; 100 mM HEPES, 50 mM NaCl, 2 mM DTT pH 7.4 at 10 °C; peptides or proteins injected from the syringe into the cell
Holding throughout (details): both partners purified

In assay [1] the target is B2.
The target in assay [2] is B1.
In assay [3] the target is T1, human β2-appendage (700–937) R879A used for ITC (human, UniProt P63010 700-937, R879A).
T1 construct: AP2 β2-adaptin appendage domain, human, residues 700-937; also called R879A mutant of the β-appendage
T1 sequence (looked up): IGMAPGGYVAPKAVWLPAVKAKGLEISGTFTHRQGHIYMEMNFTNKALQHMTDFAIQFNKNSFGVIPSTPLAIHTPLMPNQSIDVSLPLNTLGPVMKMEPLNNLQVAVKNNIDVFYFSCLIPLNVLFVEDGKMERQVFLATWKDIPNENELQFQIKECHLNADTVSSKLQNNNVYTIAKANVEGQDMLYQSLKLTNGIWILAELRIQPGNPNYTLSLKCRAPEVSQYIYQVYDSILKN

Regarding B1, the Kd in assay [1] was about 20 µM.

For B2, the “stoichiometry N” value in assay [2] was 2.

B3: Eps15 P-short peptide (peptide)
peptide: SFGDGFADFSTL
notes: peptide from Eps15; also called Eps15 peptide; source: synthetic peptide, bought: Institute of Biomolecular Sciences (University of Southampton)
B3: binding in assay [2] was characterised by a dissociation constant (Kd) of 46 µM.

B4: β-arrestin P-long peptide (peptide)
peptide: DDDIVFEDFARQRLKGMKDD
notes: peptide from the C-terminus of β-arrestin; also called β-arrestin peptide; arrestin peptide; source: synthetic peptide, bought: Institute of Biomolecular Sciences (University of Southampton)
B4 gave a Kd in assay [2] of about 2 µM. Further, the “fold stronger than with the wild-type appendage” value in assay [3] turned out to be 10 fold.
